In patent US6881547B1, “Methods and reagents for treating autoimmune disorders” (priority 2001, dated 2005):

T1: GPBP (Homo sapiens, UniProt Q9Y5P4)
T1 construct: made in house; host or cells: Pichia pastoris GS115
T1 sequence (Q9Y5P4 1-624): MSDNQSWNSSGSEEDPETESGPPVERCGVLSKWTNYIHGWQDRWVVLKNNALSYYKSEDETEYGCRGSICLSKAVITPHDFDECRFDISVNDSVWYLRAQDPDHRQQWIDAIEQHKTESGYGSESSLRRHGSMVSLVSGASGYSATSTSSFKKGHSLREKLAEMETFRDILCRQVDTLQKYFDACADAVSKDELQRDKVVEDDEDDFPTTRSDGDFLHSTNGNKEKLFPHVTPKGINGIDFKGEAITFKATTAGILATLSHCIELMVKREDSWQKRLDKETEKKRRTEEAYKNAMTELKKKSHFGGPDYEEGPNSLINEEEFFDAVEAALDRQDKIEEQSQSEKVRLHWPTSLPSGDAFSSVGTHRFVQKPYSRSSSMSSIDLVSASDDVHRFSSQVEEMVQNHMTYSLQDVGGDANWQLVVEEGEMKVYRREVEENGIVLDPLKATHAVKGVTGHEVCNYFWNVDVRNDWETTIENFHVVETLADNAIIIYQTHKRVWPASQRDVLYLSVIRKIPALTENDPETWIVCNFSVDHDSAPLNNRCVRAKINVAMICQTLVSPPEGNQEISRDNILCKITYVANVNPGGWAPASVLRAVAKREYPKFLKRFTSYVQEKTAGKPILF

T2: prokaryotic human recombinant α3(IV)NC1
T2 chain: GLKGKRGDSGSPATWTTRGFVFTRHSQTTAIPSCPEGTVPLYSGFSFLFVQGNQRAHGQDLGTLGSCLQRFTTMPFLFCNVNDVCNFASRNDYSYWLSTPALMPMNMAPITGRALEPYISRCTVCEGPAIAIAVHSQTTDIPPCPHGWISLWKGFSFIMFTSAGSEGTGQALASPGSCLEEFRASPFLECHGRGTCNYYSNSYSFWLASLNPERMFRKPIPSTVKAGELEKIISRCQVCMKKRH

T3: native bovine α3(IV)NC1 domain (bovine GP antigen), Q28084
T3 chain: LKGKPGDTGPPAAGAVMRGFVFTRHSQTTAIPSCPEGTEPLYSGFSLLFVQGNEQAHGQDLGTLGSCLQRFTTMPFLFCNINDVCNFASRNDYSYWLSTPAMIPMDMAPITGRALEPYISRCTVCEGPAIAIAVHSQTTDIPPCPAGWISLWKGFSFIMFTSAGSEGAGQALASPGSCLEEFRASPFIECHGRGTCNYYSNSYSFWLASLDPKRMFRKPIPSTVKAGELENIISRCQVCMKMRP

T4: GPpep1
T4 chain: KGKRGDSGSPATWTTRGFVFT

B1: FLAG-tagged recombinant GPBPΔ26 (rGPBPΔ26) (enzyme)
chain: DYKDDDDKMSDNQSWNSSGSEEDPETESGPPVERCGVLSKWTNYIHGWQDRWVVLKNNALSYYKSEDETEYGCRGSICLSKAVITPHDFDECRFDISVNDSVWYLRAQDPDHRQQWIDAIEQHKTESGYGSESSLRRHGSMVSLVSGASGYSATSTSSFKKGHSLREKLAEMETFRDILCRQVDTLQKYFDACADAVSKDELQRDKVVEDDEDDFPTTRSDGDFLHSTNGNKEKLFPHVTPKGINGIDFKGEAITFKATTAGILATLSHCIELMVKREDSWQKRLDKETEKKRRTEEAYKNAMTELKKKSHFGGPDYEEGPNSLINEEEFFDAVEAALDRQDKIEEQSQSEKVRLHWPTSLPSGDAFSSVGTHRFVQKVEEMVQNHMTYSLQDVGGDANWQLVVEEGEMKVYRREVEENGIVLDPLKATHAVKGVTGHEVCNYFWNVDVRNDWETTIENFHVVETLADNAIIIYQTHKRVWPASQRDVLYLSVIRKIPALTENDPETWIVCNFSVDHDSAPLNNRCVRAKINVAMICQTLVSPPEGNQEISRDNILCKITYVANVNPGGWAPASVLRAVAKREYPKFLKRFTSYVQEKTAGKPILF
notes: From plasmid pHIL-FLAG-n4′Δ26, expressed in Pichia pastoris
B2: FLAG-tagged recombinant GPBP (rGPBP) (enzyme)
chain: DYKDDDDKMSDNQSWNSSGSEEDPETESGPPVERCGVLSKWTNYIHGWQDRWVVLKNNALSYYKSEDETEYGCRGSICLSKAVITPHDFDECRFDISVNDSVWYLRAQDPDHRQQWIDAIEQHKTESGYGSESSLRRHGSMVSLVSGASGYSATSTSSFKKGHSLREKLAEMETFRDILCRQVDTLQKYFDACADAVSKDELQRDKVVEDDEDDFPTTRSDGDFLHSTNGNKEKLFPHVTPKGINGIDFKGEAITFKATTAGILATLSHCIELMVKREDSWQKRLDKETEKKRRTEEAYKNAMTELKKKSHFGGPDYEEGPNSLINEEEFFDAVEAALDRQDKIEEQSQSEKVRLHWPTSLPSGDAFSSVGTHRFVQKPYSRSSSMSSIDLVSASDDVHRFSSQVEEMVQNHMTYSLQDVGGDANWQLVVEEGEMKVYRREVEENGIVLDPLKATHAVKGVTGHEVCNYFWNVDVRNDWETTIENFHVVETLADNAIIIYQTHKRVWPASQRDVLYLSVIRKIPALTENDPETWIVCNFSVDHDSAPLNNRCVRAKINVAMICQTLVSPPEGNQEISRDNILCKITYVANVNPGGWAPASVLRAVAKREYPKFLKRFTSYVQEKTAGKPILF
modifications: phosphoserine, phosphothreonine and phosphotyrosine present, sites not given
notes: Made in Pichia pastoris or 293 cells; also called FLAG-n4′

Tests used:
PKA [1] = target: T5, PKA (Bos taurus, UniProt P00517); test: PKA phosphorylation of native GP antigen (α3(IV)NC1 monomer or hexamer) in the presence of C-terminal peptides; format: biochemical; details: for induction of GP antigen phosphorylation by PKA (22 kDa conformer of α3(IV)NC1): 0.1 μM ATP, 10 nmol peptide
Description: FIG. 16. Phosphorylation of GP alternative splicing products by PKA. In left panel, equimolecular amounts of rGP (lanes 1), rGPΔV (lanes 2), rGPΔIII (lanes 3) or rGPΔIII/IV/V (lanes 4), equivalent to 500 ng of the GP were phosphorylated at the indicated ATP concentrations. One-fifth of the total phosphorylation reaction mixture was separated by gel electrophoresis and transferred to PVDF, autoradiographed (shown) and the proteins blotted with M3/1, a specific monoclonal antibody recognizing all four species (shown) or using antibodies specific for each individual C-terminal region (not shown). […] Right panel: purified α3(IV)NC1 domain or hexamer was phosphorylated with PKA and 0.1 μM ATP in the absence (lanes 1) or in the presence of 10 nmol of peptides representing the C-terminal region of either GPΔIII (lanes 2) or GPΔIII/IV/V (lanes 3). Where indicated the phosphorylation mixtures of purified α3(IV)NC1 domain were V8 digested and immunoprecipitated with antibodies specific for the N terminus of the human α3(IV)NC1 domain (3). Bars and numbers indicate the position and sizes (kDa) of the molecular weight markers.
(§1) Phosphorylation studies. Phosphorylation studies were essentially done as described above (see also 3 and 11). In some experiments, the substrates were in-blot renatured and then, phosphorylated for 30 min at room temperature by overlaying 100 μl of phosphorylation buffer containing 0.5 μg of RGPBP. Digestion with V8 endopeptidase and immunoprecipitation were performed as described in (3).
Regulation of the phosphorylation of the human GP antigen by alternative splicing. We produced bacterial recombinant proteins representing the primary antigen (GP) or the individual alternative products GPΔV (SEQ ID NO:46), GPΔIII (SEQ ID NO:48) and GPΔIII/IV/V (SEQ ID NO:50), and we tested their ability to be phosphorylated by PKA (FIG. 16, left panel). […] Accordingly, the differences observed in phosphorylation for the full polypeptides also existed among the individual N-terminal regions, as determined after specific V8 digestion and immunoprecipitation (not shown). […]

GPBP = target: T1, GPBP; test: in vitro GPBP autophosphorylation in the presence of GPΔIII-derived peptide; format: biochemical; details: about 200 ng rGPBP, 150 μM ATP, 5 nmol peptide
Description: FIG. 20. Regulation of the GPBP by the C terminal region of GPΔIII. About 200 ng of RGPBP were in vitro phosphorylated with 150 μM ATP in the absence (lane 1) or in the presence of 5 nmol of GPΔIII-derived peptide synthesized either using Boc-(lane 2) or Fmoc-(lane 3) chemistry. The reaction mixtures were subjected to SDS-PAGE, transferred to PVDF and autoradiographed to assess autophosphorylation, and subsequently blotted with anti-FLAG monoclonal antibodies (Sigma) to determine the amount of recombinant material present (Western).
In vitro phosphorylation assays-About 200 ng of rGPBP were incubated overnight at 30° C. in 25 mM P-glycerolphosphate (pH 7.0), 0.5 mM EDTA, 0.5 mM EGTA, 8 mM MgCl2, 5 mM MnCl2, 1 mM DTT and 0.132 μM γ-^32P-ATP, in the presence or absence of 0.5-1 μg of protein substrates or 10 nmoles of synthetic peptides, in a total volume of 50 μl.
as §1

PKA [2] = target: T5, PKA; test: in vitro phosphorylation of the synthetic peptides by PKA; format: biochemical; details: not shown
[3] = target: the molecule itself; test: gel filtration HPLC and analytical centrifugation
Description: FIG. 11. rGPBP and rGPBPΔ26 form very active high molecular weight aggregates. About 300 μg of rGPBP (A) or rGPBPΔ26 (B) were subjected to gel filtration HPLC as described under Material and Methods. Vertical arrowheads and numbers respectively indicate the elution profile and molecular mass (kDa) of the molecular weight standards used. Larger aggregates eluted in the void volume (I), and the bulk of the material present in the samples eluted in the fractionation range of the column as a second peak between the 669 and 158 kDa markers (II). Fifteen microliters of the indicated minute fractions were subjected to SDS-PAGE and Coomasie blue staining. Five microliters of the same fractions were in vitro phosphorylated as described in Materials and Methods, and the reaction stopped by boiling in SDS sample buffer. The fractions were loaded onto SDS-PAGE, transferred to PVDF and autoradiographed for 1 or 2 hours using Kodak X-Omat films and blotted using anti-FLAG monoclonal antibodies (Sigma).
Northern hybridization studies Pre-made human multiple-tissue and tumor cell-line Northern Blots (CLONTECH) were probed with a cDNA containing the 78-bp exon present only in GPBP or with a cDNA representing both isoforms. […] The material was eluted from the column at 0.5 ml/min, monitored at 220 nm and minute fractions collected. […]

[4] = target: T2, prokaryotic human recombinant α3(IV)NC1
[5] = target: T3, native bovine α3(IV)NC1 domain (bovine …)
GPpep1 = target: T4, GPpep1

Row | Molecule | induction of GP antigen phosphorylation by PKA (22 kDa conformer of α3(IV)NC1) (PKA [1]) | effect on GPBP autophosphorylation (GPBP) | in vitro substrate of PKA (PKA [2]) | binding result [3] | other results
1 | QRAHGQDLDALFVKVLRSP [SEQ ID NO: 43, synthetic peptide representing the C-terminal region of GPΔIII] | induced the phosphorylation of a single polypeptide |  |  |  | 
2 | QRAHGQDLDALFVKVLRSP [Fmoc-based peptide] |  | inhibited GPBP autophosphorylation | not |  | 
3 | QRAHGQDLESLFHQL [SEQ ID NO:44, synthetic peptide representing the C-terminal region of GPΔIII/IV/V] | induced the phosphorylation of a single polypeptide |  |  |  | 
4 | QRAHGQDLDALFVKVLRSP [Boc-based peptide] |  | positively influenced GPBP autophosphorylation | in vitro substrates of PKA |  | retention of ability to induce PKA on storage (PKA [1]; long storage at low temperatures): loses its ability to induce PKA
5 | B1 |  |  |  | binds | disruption of disulfide-based aggregates, Western blot [4]: GPBP and, to a lesser extent GPBPΔ26 disrupted disulfide-based high molecular weight aggregates characteristic of recombinant material representing human α3(IV)NC1 produced in bacteria; conformers and oligomers after DTT consumption, Western blot [5]: Essentially the same results were obtained when blotting the samples that contained GPBPΔ26; trans-phosphorylation activity with 5 nmol GPpep1 (GPpep1): the reduced in-solution auto- and trans-phosphorylation activities displayed by rGPBPΔ26
6 | B2 |  |  |  | binds | 
